Legend:
Test in all cases: cell-based or functional assay
[1] = target: APOBEC3G mutant D128K, C-terminal myc-tagged (human)
[2] = target: APOBEC3G mutant P129A, C-terminal myc-tagged (human) (UniProt Q9HC16)
[3] = target: APOBEC3G mutant P129D, C-terminal myc-tagged, expressed from pAPO3G-P129D (human) (UniProt Q9HC16)
[4] = target: APOBEC3G mutant P129F, C-terminal myc-tagged (human) (UniProt Q9HC16)

| Substance | Inhibition HIV-1 (%) (viral inhibition, HDV-EGFP single-cycle infectivity in the presence of Vif) [1] | Inhibition HIV-1 (%) (viral inhibition, HDV-EGFP single-cycle infectivity in the presence of Vif) [2] | GFP-positive cells (relative to wild type APOBEC3G with pcHelp set to 100%) [3] | Inhibition HIV-1 (%) (viral inhibition, HDV-EGFP single-cycle infectivity in the presence of Vif) [3] | Inhibition HIV-1 (%) (viral inhibition, HDV-EGFP single-cycle infectivity in the presence of Vif) [4] | Inhibition HIV-2 (%) (viral inhibition, HDV-EGFP single-cycle infectivity in the presence of Vif) [1] | Inhibition HIV-2 (%) (viral inhibition, HDV-EGFP single-cycle infectivity in the presence of Vif) [2] | Inhibition HIV-2 (%) (viral inhibition, HDV-EGFP single-cycle infectivity in the presence of Vif) [3] | Inhibition HIV-2 (%) (viral inhibition, HDV-EGFP single-cycle infectivity in the presence of Vif) [4] |
| --- | --- | --- | --- | --- | --- | --- | --- | --- | --- |
| HIV-1 Vif (virion infectivity factor), expressed from pC-Help | 83% | 68% | < 10% | 94% | 79% |  |  |  |  |
| HIV-2 Vif (HIV-2Rod) |  |  | < 10% |  |  | 42% | 77% | 95% | 81% |

Reference: patent US20080026982A1
